Laboratory results reported in US20240116985A1 (published 2024).
Starred links: 1 amine or outer side, 2 acyl side, 3 side chain; linkers in the order of their positions; H or OH if unused. Positions of bridges follow the written chain, without caps; N, C: chain ends. Non-standard residues stand in square brackets, D forms with d. Primed or numbered codes have the meaning given here. (Pfbn)GA″ = [Pfbn]GA: (S)-2-amino-3-((carboxymethyl)((perfluorophenyl)methyl)amino)propanoic acid, O=C([C@H](CN(CC(=O)[*:3])Cc1c(F)c(F)c(F)c(F)c1F)N[*:1])[*:2]; (Pfbn)GA = (S)-2-amino-3-((carboxymethyl)((perfluorophenyl)methyl)amino)propanoic acid, O=C([C@H](CN(CC(=O)[*:3])Cc1c(F)c(F)c(F)c(F)c1F)N[*:1])[*:2]; PyrS2″ = (S)-3-amino-1-((pent-4-en-1-yloxy)carbonyl)pyrrolidine-3-carboxylic acid (stapling residue), C=CCCCOC(=O)N1CC[C@@](N[*:1])(C(=O)[*:2])C1; (Tfp)GA = [Tfp]GA: (S)-2-amino-3-((carboxymethyl)(3,3,3-trifluoropropyl)amino)propanoic acid, O=C([C@H](CN(CCC(F)(F)F)CC(=O)[*:3])N[*:1])[*:2]; B5(16) = 2-amino-2-(pent-4-en-1-yl)hept-6-enoic acid = 2,2-bis(4-pentenyl)glycine (stitching residue), C=CCCCC(CCCC=C)(N[*:1])C(=O)[*:2]; (Tfp)GA″ = (S)-2-amino-3-((carboxymethyl)(3,3,3-trifluoropropyl)amino)propanoic acid, O=C([C@H](CN(CCC(F)(F)F)CC(=O)[*:3])N[*:1])[*:2]; (Tfb)GA = (S)-2-amino-3-((carboxymethyl)(4,4,4-trifluorobutyl)amino)propanoic acid, O=C([C@H](CN(CCCC(F)(F)F)CC(=O)[*:3])N[*:1])[*:2]; TfeGA = (S)-2-amino-3-((carboxymethyl)(2,2,2-trifluoroethyl)amino)propanoic acid, O=C([C@H](CN(CC(=O)[*:3])CC(F)(F)F)N[*:1])[*:2]; (sBu)GA = [sBu]GA: (2S)-2-amino-3-(sec-butyl(carboxymethyl)amino)propanoic acid, CCC(C)N(CC(=O)[*:3])C[C@H](N[*:1])C(=O)[*:2]; PyrS2 = (S)-3-amino-1-((pent-4-en-1-yloxy)carbonyl)pyrrolidine-3-carboxylic acid, C=CCCCOC(=O)N1CC[C@@](N[*:1])(C(=O)[*:2])C1; (Bn)GA″ = [Bn]GA: (S)-2-amino-3-(benzyl(carboxymethyl)amino)propanoic acid, O=C([C@H](CN(CC(=O)[*:3])Cc1ccccc1)N[*:1])[*:2]; (Me)GA″ = [Me]GA: (S)-2-amino-3-((carboxymethyl)(methyl)amino)propanoic acid, CN(CC(=O)[*:3])C[C@H](N[*:1])C(=O)[*:2]; (Et)GA = [Et]GA: (S)-2-amino-3-((carboxymethyl)(ethyl)amino)propanoic acid, CCN(CC(=O)[*:3])C[C@H](N[*:1])C(=O)[*:2]; (Bn)GA = (S)-2-amino-3-(benzyl(carboxymethyl)amino)propanoic acid, O=C([C@H](CN(CC(=O)[*:3])Cc1ccccc1)N[*:1])[*:2]; (Me)GA = (S)-2-amino-3-((carboxymethyl)(methyl)amino)propanoic acid, CN(CC(=O)[*:3])C[C@H](N[*:1])C(=O)[*:2]; B5(3) = 2,2-bis(4-pentenyl)glycine (stitching residue), C=CCCCC(CCCC=C)(N[*:1])C(=O)[*:2]; Phe(2-Cl) = N[C@@H](Cc1ccccc1Cl)C(=O)O; Bta = N[C@@H](Cc1csc2ccccc12)C(=O)O; Lys(iPr) = CC(C)NCCCC[C@H](N)C(=O)O; αAllylPro = C=CC[C@@]1(C(=O)O)CCCN1; tBuAla = CC(C)(C)C[C@H](N)C(=O)O; 3Thi = N[C@@H](Cc1ccsc1)C(=O)O; S8 = C=CCCCCCC[C@](C)(N)C(=O)O; PyrS2(4) = not defined here

T1: B-cat-Halo (UniProt P35222 1-781)
T1 sequence (looked up): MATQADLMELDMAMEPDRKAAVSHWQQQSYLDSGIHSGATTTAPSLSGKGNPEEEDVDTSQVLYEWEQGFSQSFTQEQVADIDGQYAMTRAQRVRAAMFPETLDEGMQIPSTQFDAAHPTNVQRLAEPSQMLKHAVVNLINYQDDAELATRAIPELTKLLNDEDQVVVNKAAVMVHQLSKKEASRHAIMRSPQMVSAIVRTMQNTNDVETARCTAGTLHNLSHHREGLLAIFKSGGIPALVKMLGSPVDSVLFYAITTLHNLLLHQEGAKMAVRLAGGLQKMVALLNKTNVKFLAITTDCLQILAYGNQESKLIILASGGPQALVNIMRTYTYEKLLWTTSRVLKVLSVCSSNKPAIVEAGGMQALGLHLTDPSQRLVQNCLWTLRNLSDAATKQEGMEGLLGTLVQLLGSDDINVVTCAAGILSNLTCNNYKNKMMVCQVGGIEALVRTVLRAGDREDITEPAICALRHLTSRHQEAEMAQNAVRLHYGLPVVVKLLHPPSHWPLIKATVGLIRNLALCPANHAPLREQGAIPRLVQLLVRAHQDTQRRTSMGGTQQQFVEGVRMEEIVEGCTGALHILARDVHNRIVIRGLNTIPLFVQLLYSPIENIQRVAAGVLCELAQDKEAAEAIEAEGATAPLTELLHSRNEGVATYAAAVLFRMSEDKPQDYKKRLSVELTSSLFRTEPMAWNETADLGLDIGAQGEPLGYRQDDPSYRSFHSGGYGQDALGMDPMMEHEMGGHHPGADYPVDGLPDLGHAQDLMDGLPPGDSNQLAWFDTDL

T2: B-cat-Halo (UniProt P35222 1-781)
T2 sequence (looked up): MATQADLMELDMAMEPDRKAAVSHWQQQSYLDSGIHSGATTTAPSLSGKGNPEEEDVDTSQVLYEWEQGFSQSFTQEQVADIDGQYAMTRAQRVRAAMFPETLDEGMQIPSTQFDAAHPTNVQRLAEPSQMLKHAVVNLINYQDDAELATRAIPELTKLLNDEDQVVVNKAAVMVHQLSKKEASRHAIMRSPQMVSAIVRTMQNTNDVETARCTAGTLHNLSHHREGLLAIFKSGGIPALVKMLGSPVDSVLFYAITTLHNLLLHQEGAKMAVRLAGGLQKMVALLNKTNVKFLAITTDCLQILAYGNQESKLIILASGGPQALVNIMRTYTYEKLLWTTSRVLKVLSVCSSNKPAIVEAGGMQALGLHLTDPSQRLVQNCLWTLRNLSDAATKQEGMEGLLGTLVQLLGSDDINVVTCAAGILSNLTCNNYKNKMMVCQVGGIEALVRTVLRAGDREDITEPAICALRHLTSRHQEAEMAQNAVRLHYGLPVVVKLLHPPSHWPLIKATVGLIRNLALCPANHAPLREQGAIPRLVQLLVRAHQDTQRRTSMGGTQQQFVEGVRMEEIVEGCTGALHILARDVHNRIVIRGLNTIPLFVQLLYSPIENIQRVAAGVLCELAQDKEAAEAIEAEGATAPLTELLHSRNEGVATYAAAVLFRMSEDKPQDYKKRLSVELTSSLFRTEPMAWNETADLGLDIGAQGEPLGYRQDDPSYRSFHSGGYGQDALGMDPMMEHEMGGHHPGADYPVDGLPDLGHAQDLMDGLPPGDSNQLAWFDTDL


target: T1, B-cat-Halo; assay: cell-based or functional assay

| Binder | NanoBRET Abs IC50 [µM] |
| --- | --- |
| Ac-[αAllylPro]D[tBuAla][B5(3)]D[(Tfp)GA]AAFN[S8][3Thi][Bta]Q-NH2 (staple 1-4, 4-11) [I-1625] | 29.3 |
| Ac-[αAllylPro]D[tBuAla][B5(3)]D[(Et)GA]AAFN[PyrS2(4)][Phe(2-Cl)][Bta]Q-NH2 (staple 1-4, 4-11; not fully specified; printed as Ac-PL3-Asp-Npg-B5-Asp-[Et]GA-Ala-Ala-Phe-Asn-PyrS2-2C1F-BztA-Gln-NH2; reading uncertain) [I-1622] | > 20 |
| Ac-[αAllylPro]D[tBuAla][B5(3)]D[(Pfbn)GA″]AAFN[S8][3Thi][Bta]Q-NH2 (staple 1-4, 4-11) [I-1624] | 42.9 |
| Ac-[αAllylPro]D[tBuAla][B5(3)]D[(Bn)GA″]AAFL[PyrS2″][3Thi][Bta]Q-NH2 (staple 1-4, 4-11) [I-1630] | 5 |
| Ac-[αAllylPro]D[tBuAla][B5(16)]D[(Pfbn)GA]AAFN[PyrS2][3Thi][Bta]Q-NH2 (staple 1-4, 4-11) [I-1638] | 14.5 |
| Ac-[αAllylPro]D[tBuAla][B5(3)]D[(Me)GA″]AAFL[PyrS2″][3Thi][Bta]Q-NH2 (staple 1-4, 4-11) [I-1631] | 30.1 |
| Ac-[αAllylPro]D[tBuAla][B5(3)]D[(Et)GA]AAFN[S8][3Thi][Bta]Q-NH2 (staple 1-4, 4-11; also: later eluting staple isomer) [I-1628] | > 20 |
| Ac-[αAllylPro]D[tBuAla][B5(3)]D[(Tfb)GA]AAFN[PyrS2][3Thi][Bta]Q-NH2 (staple 1-4, 4-11) [I-1634] | 16.5 |
| Ac-[αAllylPro]D[tBuAla][B5(16)]D[(Me)GA]AAFN[PyrS2(4)][3Thi][Bta]Q-NH2 (staple 1-4, 4-11; not fully specified; printed as Ac-PL3-Asp-Npg-B5-Asp-[Me]GA-Ala-Ala-Phe-Asn-PyrS2-3Thi-BztA-Gln-NH2; reading uncertain) [I-1637] | > 20 |
| Ac-[αAllylPro]D[tBuAla][B5(3)]D[(sBu)GA]AAFN[PyrS2″][Phe(2-Cl)][Bta]Q-NH2 (staple 1-4, 4-11) [I-1623] | 27.7 |
| Ac-[αAllylPro]D[tBuAla][B5(3)]D[(Tfp)GA″]AAFL[PyrS2][3Thi][Bta]Q-NH2 (staple 1-4, 4-11) [I-1633] | 5.2 |
| Ac-[αAllylPro]D[tBuAla][B5(3)]D[(Bn)GA]AAFN[PyrS2][3Thi][Bta]Q-NH2 (staple 1-4, 4-11) [I-1635] | 20.6 |
| Ac-[αAllylPro]D[tBuAla][B5(3)]D[(Et)GA]AAFN[S8][3Thi][Bta]Q-NH2 (staple 1-4, 4-11; also: earlier eluting staple isomer) [I-1627] | > 20 |
| Ac-[αAllylPro]D[tBuAla][B5(3)]D[TfeGA]AAFT[PyrS2″][Phe(2-Cl)][Bta][Lys(iPr)]-NH2 (staple 1-4, 4-11) [I-1615] | 8 |
| Ac-[αAllylPro]D[tBuAla][B5(3)]D[(Me)GA]AAFN[PyrS2][3Thi][Bta]Q-NH2 (staple 1-4, 4-11; also: earlier eluting staple isomer) [I-1636] | > 20 |

target: T2, B-cat-Halo; assay: cell-based or functional assay

| Binder | NanoBRET Abs IC50 [µM] |
| --- | --- |
| Ac-[αAllylPro]D[tBuAla][B5(3)]DDAAFN[PyrS2][Bta][Bta]H-NH2 (staple 1-4, 4-11) [I-793] | > 20 |
| Ac-[αAllylPro]D[tBuAla][B5(3)]DDAAFN[PyrS2][3Thi]WH-NH2 (staple 1-4, 4-11) [I-792] | > 20 |
